Experimental data published in patent US20250206802A1.

Tests used:
[1] = target: αVβ6 headpiece (soluble, disulfide-linked: αv headpiece residues 1-594 with M400C and β6 headpiece residues 1-474 with I270C) (UniProt P06756); test: fluorescence anisotropy; pH 5.0
Target sequence in this assay (P06756 other isoform, or with tags, fused parts or gaps M400C I270C, chain 1 of 2): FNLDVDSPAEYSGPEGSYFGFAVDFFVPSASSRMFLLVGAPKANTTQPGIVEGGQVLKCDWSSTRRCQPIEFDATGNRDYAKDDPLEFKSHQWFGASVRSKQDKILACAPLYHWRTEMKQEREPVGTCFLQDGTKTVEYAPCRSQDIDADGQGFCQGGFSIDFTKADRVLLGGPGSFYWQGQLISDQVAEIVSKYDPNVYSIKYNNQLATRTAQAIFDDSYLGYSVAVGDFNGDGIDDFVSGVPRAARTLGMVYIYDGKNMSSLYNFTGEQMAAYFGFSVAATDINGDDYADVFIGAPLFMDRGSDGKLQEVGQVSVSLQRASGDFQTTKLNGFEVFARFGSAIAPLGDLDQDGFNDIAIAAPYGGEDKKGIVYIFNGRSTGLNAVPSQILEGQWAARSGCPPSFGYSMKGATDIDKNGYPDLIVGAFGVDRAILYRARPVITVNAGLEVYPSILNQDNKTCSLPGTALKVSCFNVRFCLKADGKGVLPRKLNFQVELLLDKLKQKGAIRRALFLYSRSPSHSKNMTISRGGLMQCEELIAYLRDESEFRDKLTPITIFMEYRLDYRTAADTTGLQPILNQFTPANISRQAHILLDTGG
Target sequence in this assay (P18564 other isoform, or with tags, fused parts or gaps M400C I270C, chain 2 of 2, further chain): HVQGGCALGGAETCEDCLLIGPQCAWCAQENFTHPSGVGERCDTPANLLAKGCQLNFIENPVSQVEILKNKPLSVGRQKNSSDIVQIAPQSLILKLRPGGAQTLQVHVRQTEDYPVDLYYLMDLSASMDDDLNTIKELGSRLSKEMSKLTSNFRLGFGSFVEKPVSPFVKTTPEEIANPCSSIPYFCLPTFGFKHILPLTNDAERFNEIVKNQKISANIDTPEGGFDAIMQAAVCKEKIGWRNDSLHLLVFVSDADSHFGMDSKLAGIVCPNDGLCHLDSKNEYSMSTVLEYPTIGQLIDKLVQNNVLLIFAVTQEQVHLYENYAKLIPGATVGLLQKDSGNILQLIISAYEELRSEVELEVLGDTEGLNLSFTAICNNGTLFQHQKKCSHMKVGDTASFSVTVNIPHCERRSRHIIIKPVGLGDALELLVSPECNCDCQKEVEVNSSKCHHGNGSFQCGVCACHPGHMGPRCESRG

[2] = target: αVβ6 headpiece (soluble, disulfide-linked: αv headpiece residues 1-594 with M400C and β6 headpiece residues 1-474 with I270C) (UniProt P06756); test: fluorescence anisotropy; pH 6.0
Target sequence in this assay (P06756 other isoform, or with tags, fused parts or gaps M400C I270C, chain 1 of 2): as the sequence (P06756 other isoform, or with tags, fused parts or gaps M400C I270C, chain 1 of 2) above
Target sequence in this assay (P18564 other isoform, or with tags, fused parts or gaps M400C I270C, chain 2 of 2, further chain): as the sequence (P18564 other isoform, or with tags, fused parts or gaps M400C I270C, chain 2 of 2, further chain) above

[3] = target: αVβ6 headpiece (soluble, disulfide-linked: αv headpiece residues 1-594 with M400C and β6 headpiece residues 1-474 with I270C) (UniProt P06756); test: fluorescence anisotropy; pH 7.0
Target sequence in this assay (P06756 other isoform, or with tags, fused parts or gaps M400C I270C, chain 1 of 2): as the sequence (P06756 other isoform, or with tags, fused parts or gaps M400C I270C, chain 1 of 2) above
Target sequence in this assay (P18564 other isoform, or with tags, fused parts or gaps M400C I270C, chain 2 of 2, further chain): as the sequence (P18564 other isoform, or with tags, fused parts or gaps M400C I270C, chain 2 of 2, further chain) above

[4] = target: αVβ6 headpiece (soluble, disulfide-linked: αv headpiece residues 1-594 with M400C and β6 headpiece residues 1-474 with I270C) (UniProt P06756); test: fluorescence anisotropy; pH 8.0
Target sequence in this assay (P06756 other isoform, or with tags, fused parts or gaps M400C I270C, chain 1 of 2): as the sequence (P06756 other isoform, or with tags, fused parts or gaps M400C I270C, chain 1 of 2) above
Target sequence in this assay (P18564 other isoform, or with tags, fused parts or gaps M400C I270C, chain 2 of 2, further chain): as the sequence (P18564 other isoform, or with tags, fused parts or gaps M400C I270C, chain 2 of 2, further chain) above

[5] = target: αVβ6 headpiece (soluble, disulfide-linked: αv headpiece residues 1-594 with M400C and β6 headpiece residues 1-474 with I270C) (UniProt P06756); test: fluorescence anisotropy; pH 9.0
Target sequence in this assay (P06756 other isoform, or with tags, fused parts or gaps M400C I270C, chain 1 of 2): as the sequence (P06756 other isoform, or with tags, fused parts or gaps M400C I270C, chain 1 of 2) above
Target sequence in this assay (P18564 other isoform, or with tags, fused parts or gaps M400C I270C, chain 2 of 2, further chain): as the sequence (P18564 other isoform, or with tags, fused parts or gaps M400C I270C, chain 2 of 2, further chain) above

[6] = target: αVβ3 headpiece (soluble, disulfide-linked: αv headpiece residues 1-594 with M400C and β3 headpiece residues 1-472 with Q267C) (UniProt P06756); test: fluorescence anisotropy competition
Target sequence in this assay (P06756 other isoform, or with tags, fused parts or gaps M400C Q267C, chain 1 of 2): as the sequence (P06756 other isoform, or with tags, fused parts or gaps M400C I270C, chain 1 of 2) above
Target sequence in this assay (P05106 27-498 Q293C, chain 2 of 2, further chain): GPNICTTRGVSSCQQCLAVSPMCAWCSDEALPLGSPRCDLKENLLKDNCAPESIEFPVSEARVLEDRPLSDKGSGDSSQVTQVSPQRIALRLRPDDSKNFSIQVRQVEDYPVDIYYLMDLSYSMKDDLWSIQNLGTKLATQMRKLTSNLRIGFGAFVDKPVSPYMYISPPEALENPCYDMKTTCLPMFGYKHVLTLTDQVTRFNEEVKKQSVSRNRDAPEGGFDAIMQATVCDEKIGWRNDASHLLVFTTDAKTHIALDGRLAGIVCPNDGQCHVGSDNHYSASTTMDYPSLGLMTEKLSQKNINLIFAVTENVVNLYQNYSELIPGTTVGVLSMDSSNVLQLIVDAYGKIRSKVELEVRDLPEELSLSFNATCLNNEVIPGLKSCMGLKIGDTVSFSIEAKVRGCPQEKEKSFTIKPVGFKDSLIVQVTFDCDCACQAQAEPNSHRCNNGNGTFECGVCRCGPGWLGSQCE

[7] = target: αVβ6 headpiece (soluble, disulfide-linked: αv headpiece residues 1-594 with M400C and β6 headpiece residues 1-474 with I270C) (UniProt P06756); test: competitive fluorescence anisotropy on αVβ6 headpiece
Target sequence in this assay (P06756 other isoform, or with tags, fused parts or gaps M400C I270C M400C I270C, chain 1 of 2): as the sequence (P06756 other isoform, or with tags, fused parts or gaps M400C I270C, chain 1 of 2) above
Target sequence in this assay (chain, as listed by the source M400C I270C M400C I270C, chain 2 of 2): as the sequence (P18564 other isoform, or with tags, fused parts or gaps M400C I270C, chain 2 of 2, further chain) above

[8] = target: αVβ3 headpiece (soluble, disulfide-linked: αv headpiece residues 1-594 with M400C and β3 headpiece residues 1-472 with Q267C) (UniProt P06756); test: fluorescence anisotropy, competition with FITC-GRGDLGRL on αVβ3 headpiece
Target sequence in this assay (P06756 other isoform, or with tags, fused parts or gaps M400C Q267C M400C Q267C, chain 1 of 2): as the sequence (P06756 other isoform, or with tags, fused parts or gaps M400C I270C, chain 1 of 2) above
Target sequence in this assay (chain, as listed by the source M400C Q267C M400C Q267C, chain 2 of 2): as the sequence (P05106 27-498 Q293C, chain 2 of 2, further chain) above

[9] = target: αVβ6 headpiece (soluble, disulfide-linked: αv headpiece residues 1-594 with M400C and β6 headpiece residues 1-474 with I270C) (UniProt P06756); test: fluorescence anisotropy, competition with FITC-GRGDLGRL on αVβ6 headpiece
Target sequence in this assay (P06756 other isoform, or with tags, fused parts or gaps M400C I270C M400C I270C, chain 1 of 2): as the sequence (P06756 other isoform, or with tags, fused parts or gaps M400C I270C, chain 1 of 2) above
Target sequence in this assay (chain, as listed by the source M400C I270C M400C I270C, chain 2 of 2): as the sequence (P18564 other isoform, or with tags, fused parts or gaps M400C I270C, chain 2 of 2, further chain) above

Q: What does the source list for “FITC-GRGDLGRL (SEQ ID NO: 68), FITC-pro-TGF-β3 peptide”?
A: Kd [1]: 3.81 µM; Kd [2]: 2 µM; Kd [3]: 0.212 µM; Kd [4]: 0.0846 µM; Kd [5]: 0.0274 µM

Q: Which Kd [6] does the source give for “GRGDSP (SEQ ID NO: 72) peptide of fibronectin” here?
A: Its Kd is 1.6 µM.

B1: TGF-β3 undecapeptide truncated from the C-terminus until Leu-247 is removed (peptide)
peptide: HGRGDLGR
Q: How did the step-wise drop in affinity (fold, against the peptide one residue longer) [7] turn out when B1 was run?
A: The step-wise drop in affinity (fold, against the peptide one residue longer) was 10 fold.

B2: TGF-β3 undecapeptide truncated from the C-terminus until Leu-244 is removed (peptide)
peptide: HGRGD
Q: With B2 as the molecule, how does the step-wise drop in affinity (fold, against the peptide one residue longer) [7] read?
A: The step-wise drop in affinity (fold, against the peptide one residue longer) was 10 fold.

B3: nonapeptide containing RGD from pro-TGF-β3, … (SEQ ID NO: 75) (peptide)
peptide: GRGDLGRLK
Q: Which fold lower affinity than for αVβ6 [8] does the source give for B3 here?
A: The fold lower affinity than for αVβ6 was 1000 fold.

Q: And the Kd [9]?
A: The Kd was 0.0085 µM.
